Data published in PMC8091058, “Distinct intramolecular interactions regulate autoinhibition of vinculin binding in αT-catenin and αE-catenin” (The Journal of Biological Chemistry, 2021).

Assays:
[1] = target: T1, αT-catenin M1-M3 (aa 260–626) (Mus musculus, UniProt Q65CL1 260-626); experiment: ITC; vinculin D1 titrated into an equimolar mixture of αT-catenin N1-N2 and M1-M3; 25 °C; 20 mM Hepes pH 8.0, 150 mM NaCl, 1 mM TCEP; details: both partners purified
T1 construct: αT-catenin, Mus musculus, M1-M3, aa 260-626; in pGEX-TEV; also called αT-catenin M-region; αT-catenin M1-M3 (260–626); source: E. coli BL21-Gold, purified (glutathione-agarose, TEV cleavage, Mono Q or Mono S, S200)
T1 sequence (looked up): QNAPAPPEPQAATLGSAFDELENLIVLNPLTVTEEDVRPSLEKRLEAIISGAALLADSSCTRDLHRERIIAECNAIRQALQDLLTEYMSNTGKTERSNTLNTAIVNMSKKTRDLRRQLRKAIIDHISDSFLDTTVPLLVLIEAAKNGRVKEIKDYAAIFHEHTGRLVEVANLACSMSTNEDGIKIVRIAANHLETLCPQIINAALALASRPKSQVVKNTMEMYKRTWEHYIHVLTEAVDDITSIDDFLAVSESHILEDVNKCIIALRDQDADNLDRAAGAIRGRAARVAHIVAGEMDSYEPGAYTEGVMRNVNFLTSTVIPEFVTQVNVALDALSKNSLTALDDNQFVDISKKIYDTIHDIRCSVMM

[2] = target: T2, αE-catenin M1-M3 (aa 273–651) (Mus musculus, UniProt P26231 273-651); experiment: ITC; vinculin D1 injected into αT-catenin or αE-catenin fragment (or αT-catenin head–β-catenin complex) in the cell; 25 °C; 20 mM Hepes pH 8.0, 150 mM NaCl, 1 mM TCEP; details: both partners purified
T2 construct: αE-catenin, Mus musculus, M1-M3, aa 273-651; in pGEX-TEV; also called αE-catenin M1-M3 (273–651); source: E. coli BL21-Gold, purified (glutathione-agarose, TEV cleavage, Mono Q or Mono S, S200)
T2 sequence (looked up): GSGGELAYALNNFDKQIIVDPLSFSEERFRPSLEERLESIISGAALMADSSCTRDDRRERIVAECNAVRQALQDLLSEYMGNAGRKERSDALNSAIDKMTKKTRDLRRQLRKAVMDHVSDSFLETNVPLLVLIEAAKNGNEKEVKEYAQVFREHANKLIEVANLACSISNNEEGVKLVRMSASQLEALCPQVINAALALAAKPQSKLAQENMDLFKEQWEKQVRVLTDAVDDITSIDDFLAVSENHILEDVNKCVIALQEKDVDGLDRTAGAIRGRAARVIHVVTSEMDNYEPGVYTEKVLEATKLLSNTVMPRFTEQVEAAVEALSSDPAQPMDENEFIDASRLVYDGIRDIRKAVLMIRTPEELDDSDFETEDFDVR

[3] = target: T3, αT-catenin N2-M3 (aa 147–626) (Mus musculus, UniProt Q65CL1 147-626); experiment: as above; details: both partners purified
T3 construct: αT-catenin, Mus musculus, N2-M3, aa 147-626; in pGEX-TEV; also called αT-catenin N2-M3 (147–626); source: E. coli BL21-Gold, purified (glutathione-agarose, TEV cleavage, Mono Q or Mono S, S200)
T3 sequence (looked up): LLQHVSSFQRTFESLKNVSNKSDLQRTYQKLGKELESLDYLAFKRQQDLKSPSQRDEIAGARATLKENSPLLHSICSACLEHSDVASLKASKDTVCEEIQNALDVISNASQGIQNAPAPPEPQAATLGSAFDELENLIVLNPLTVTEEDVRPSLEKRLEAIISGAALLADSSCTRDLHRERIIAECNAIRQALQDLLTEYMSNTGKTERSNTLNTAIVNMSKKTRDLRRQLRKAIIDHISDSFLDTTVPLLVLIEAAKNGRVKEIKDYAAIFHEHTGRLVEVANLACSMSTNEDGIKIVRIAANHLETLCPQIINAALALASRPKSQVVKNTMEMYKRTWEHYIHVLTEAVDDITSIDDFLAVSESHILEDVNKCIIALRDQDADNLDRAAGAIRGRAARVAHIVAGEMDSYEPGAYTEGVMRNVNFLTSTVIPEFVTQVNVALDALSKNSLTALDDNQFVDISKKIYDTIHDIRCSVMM

[4] = target: 2I27–αT-catenin M1-M3 (aa 259–667)-2I27 (UniProt Q65CL1); experiment: as above

Kd [1]: 50.1 ± 17.5 nM
dH [1]: -3.1 ± 0.1 kcal/mol
Kd [2]: 10400 ± 4590 nM
dH [2]: 12.8 ± 5.2 kcal/mol
Kd [3]: 50.2 ± 40.4 nM
dH [3]: 4 ± 0.1 kcal/mol
Kd [4]: 245 nM
dH [4]: 4.8 kcal/mol
B1: vinculin D1 (aa 1–259) (domain or fragment, UniProt P12003 1-259, looked up)
chain: MPVFHTRTIESILEPVAQQISHLVIMHEEGEVDGKAIPDLTAPVSAVQAAVSNLVRVGKETVQTTEDQILKRDMPPAFIKVENACTKLVRAAQMLQADPYSVPARDYLIDGSRGILSGTSDLLLTFDEAEVRKIIRVCKGILEYLTVAEVVETMEDLVTYTKNLGPGMTKMAKMIDERQQELTHQEHRVMLVNSMNTVKELLPVLISAMKIFVTTKNTKSQGIEEALKNRNFTVEKMSAEINEIIRVLQLTSWDEDAWA
notes: vinculin D1 fragment, aa 1-259, the first 2 four-helix bundles; in pGEX-TEV; also called vinculin aa 1 to 259 (D1); vinculin N-terminus; source: E. coli BL21-Gold, purified (glutathione-agarose, TEV cleavage, Mono Q or Mono S, S200)
